# Test results as given in patent US8840886B2, “Method of treating cancer with DLL4 antagonist and chemotherapeutic agent” (Regeneron Pharmaceuticals, Inc., priority 2009, dated 2014).
# B1: REGN421: anti-hDll4 antibody comprising HCVR/LCVR combination of SEQ ID NO:116/118 (antibody, V domains shown)
# VH: QVQLVESGGGVVQPGRSLRLSCAASGFTFSSYGMHWVRQAPGKGLEWVSFLWYDGTNKNYVESVKGRFTISRDNSKNMLYLEMNSLRAEDTAVYYCARDHDFRSGYEGWFDPWGQGTLVTVSS
# VL: EIVLTQSPATLSLSPGERATLSCRASQSVSSYLAWYQQKPGQAPRLLIYDASNRATGIPARFSGSGSGTDFTLTISSLEPEDFAVYYCQHRSNWPPTFGGGTKVEIK
# Tested on: human VM-Cub1 tumor cells (bladder carcinoma cells)
# Assay: VM-Cub1 bladder carcinoma xenograft tumor growth, REGN421 with cisplatin (Example 1)
# Assay type: in vivo, mouse
# Conditions: for TGI: 3 doses, at day 32; for Euthanized: control cohort euthanized day 32; for TGD: time to 600 mm^3 vs control
# Protocol: The effect of anti-Dll4 antibody (REGN421) in combination with cisplatin (platinol, cis-diamminedichloroplatinum) on tumor growth was evaluated on tumors implanted in Severe Combined Immunodeficiency (SCID) mice expressing a humanized Dll4 protein (humanized Dll4 SCID mice). The humanized Dll4 SCID mouse was made by replacing the entire extracellular domain of the mouse Dll4 gene with the corresponding extracellular region of the human Dll4 gene (7 kb) in embryonic stem (ES) cells. Homozygous hDll4 mice were generated and bred into SCID background.
# Each mouse was implanted subcutaneously (sc) with 1×10^6 human VM-Cub1 tumor cells (bladder carcinoma cells) plus MATRIGEL™ (BD Biosciences, #354234). After the tumors were established in the mice (tumor size of 150-200 mm^3, approximately 14 days after implantation), tumors were measured, randomized and treated with hFc, REGN421, cisplatin, or combination of REGN421 and cisplatin. A total of 45 mice were divided into nine groups (n=5 per cohort). The first group was treated subcutaneously (sc) with hFc at 2 mg/kg; the second and third groups were treated sc with REGN421 at 0.5 and 2 mg/kg, respectively; the fourth and fifth groups were treated intraperitoneally (ip) with cisplatin at 0.5 and 2 mg/kg, respectively; the sixth group was treated sc with REGN421 at 0.5 mg/kg and ip with cisplatin at 0.5 mg/kg; the seventh group was treated sc with REGN421 at 0.5 mg/kg and ip with cisplatin at 2 mg/kg; the eighth group was treated sc with REGN421 at 2 mg/kg and ip with cisplatin at 0.5 mg/kg; and the ninth group was treated sc with REGN421 at 2 mg/kg and ip with cisplatin at 2 mg/kg. REGN421 was administered every 3-4 days starting on day 14 and mice received three doses total. Cisplatin was administered every 24 hours starting on day 14; mice received four doses total.
# To assess the effects of REGN421 and cisplatin as single agents or in combination treatments, the changes in tumor size were recorded. Tumor growth was measured three days before the initial REGN421 treatment, on the day of each REGN421 treatment (days 14, 17 and 21) and thereafter every 3-4 days until tumors reached ˜600 mm^3 in size. In vivo tumor size was calculated using the formula (length×width^2)/2 (FIG. 1 and Table 1).
# Tumor Growth Inhibition, TGI, was determined by calculating the difference in tumor size for treated (T) versus vehicle control (C) tumor at the day the control cohort was euthanized (i.e., at day 32); TGI=[1−(Tfinal−Tinitial)/(Cfinal−Cinitial)]×100.
# Tumor growth delay, TGD, was assessed as the difference in days between treated (T) versus control (C) tumors when each cohort reached a specified tumor size. The predetermined tumor size for this experiment was 600 mm^3.
molecule,measurement,setting,value
B1,TGI,REGN421 0.5 mg/kg/dose sc,−13.7%
same,Euthanized,REGN421 0.5 mg/kg/dose sc,32 days
same,TGD,REGN421 0.5 mg/kg/dose sc,0 days
same,TGI,REGN421 2 mg/kg/dose sc,83.1%
same,Euthanized,REGN421 2 mg/kg/dose sc,44 days
same,TGD,REGN421 2 mg/kg/dose sc,12 days
